Data taken from patent US20230174596A1 (published 2023).
Positions count from the first letter of the chain named. Numbers in names are those of the source. Read-outs that look alike come from different tables or passages of the source.

Assays:
hVEGF-A (8-109) [1] = biological target: T1, hVEGF-A (8-109) (human, UniProt P15692 214-315); assay: spot phage ELISA
T1 construct: residue numbers count on mature VEGF-A; dimer
T1 sequence (looked up): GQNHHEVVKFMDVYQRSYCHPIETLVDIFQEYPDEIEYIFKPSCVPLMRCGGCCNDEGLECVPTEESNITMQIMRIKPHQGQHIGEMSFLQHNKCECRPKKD

[2] = biological target: LRP6 E1E2 protein (human) (UniProt O75581); assay: spot phage ELISA
human VEGF-A = biological target: T2, human VEGF-A (human, UniProt P15692-4 34-135, limits assumed); assay: cell-based or functional assay
T2 sequence (looked up): T1 sequence (looked up)

rat VEGF-A = biological target: T3, rat VEGF-A (rat, UniProt P16612-2 27-190, limits assumed); assay: cell-based or functional assay
T3 sequence (looked up): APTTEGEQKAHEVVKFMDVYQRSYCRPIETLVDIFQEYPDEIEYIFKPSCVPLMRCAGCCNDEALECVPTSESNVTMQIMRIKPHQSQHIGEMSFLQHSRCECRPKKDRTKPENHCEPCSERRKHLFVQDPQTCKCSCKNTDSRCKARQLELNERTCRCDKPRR

mVEGF = biological target: T4, mVEGF (mouse, UniProt Q00731-2 27-190, limits assumed); assay: cell-based or functional assay
T4 sequence (looked up): T3 sequence (looked up) with A10S, V14I, V75I

hVEGF-A (8-109) [3] = biological target: T1, hVEGF-A (8-109); assay: SPR
Method: Depending on the format of the assay either a streptavidin sensor (SA) or a dextran-coated (CM5) sensor was utilized as described below.
Reaction was then quenched by addition of 10 molar excess of Glycine pH 8.0 and the sample was buffer exchanged into PBS using an Amicon 0.5 mL 3000 MWCO ultra-centrifugal filters (EMD Millipore). The biotinylation state of the protein was verified by LC-MS analysis. Biotinylated VEGF-A was then captured on the surface until a resonance unit (RU) signal of about −0.400. For immobilization of VEGF-A on CM5 sensor, the surface was first activated with a mixture of N-ethyl-N′-(3-dimethylaminopropyl)carbodiimide hydrochloride and N-hydroxysuccinimide (EDC/NHS) according to the supplier instructions. VEGF-A was then diluted into coupling buffer (0.1 M Acetate Buffer, pH 5.0) and injected until the signal reached about −0.400 RU followed by a wash with 1 M ethanolamine pH 8.0 to quench remaining activated sites.

LRP6 E1E2 protein (human), sequence (O75581 20-630 limits assumed): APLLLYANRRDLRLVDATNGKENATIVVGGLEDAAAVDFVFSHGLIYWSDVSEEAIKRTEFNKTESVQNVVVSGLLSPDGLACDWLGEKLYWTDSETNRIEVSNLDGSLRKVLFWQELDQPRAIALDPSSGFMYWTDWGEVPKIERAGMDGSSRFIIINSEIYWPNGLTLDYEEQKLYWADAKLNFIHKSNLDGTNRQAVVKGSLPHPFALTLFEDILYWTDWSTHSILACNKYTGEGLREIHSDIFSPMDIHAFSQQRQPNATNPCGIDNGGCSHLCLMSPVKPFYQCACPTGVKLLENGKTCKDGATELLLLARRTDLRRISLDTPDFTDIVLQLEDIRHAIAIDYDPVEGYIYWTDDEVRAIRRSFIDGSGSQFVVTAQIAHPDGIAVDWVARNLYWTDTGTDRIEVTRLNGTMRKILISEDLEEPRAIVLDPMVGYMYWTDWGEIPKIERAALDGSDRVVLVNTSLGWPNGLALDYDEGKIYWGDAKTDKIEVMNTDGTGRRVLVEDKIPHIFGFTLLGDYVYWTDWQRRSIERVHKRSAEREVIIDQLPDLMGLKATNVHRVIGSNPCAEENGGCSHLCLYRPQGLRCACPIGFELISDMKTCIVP

GCDVMQPYWGCEMDFDCLAGCICHWYNSCGTS (designed binder) [9.63.44-8]: binds (hVEGF-A (8-109) [1]).

GCRGNIIKCKQDSDCLAGCVCNESRGCG (designed binder) [LRP6_CKP8] gave an ELISA [2] of 3.23 and a S/N [2] of 37.6.

Work on GCGNKIRACKQDSDCLAGCVCRDRVGCG (designed binder) [LRP6_CKP21] yielded an ELISA [2] of 2.8 and a S/N [2] of 33.7.

Binder GCGSNKIRPRCKQDSDCLAGCVCGPNDFCG (designed binder) [LRP6_CKP14] has an ELISA [2] of 3.18 and a S/N [2] of 43.5.

GCNIMLPFWGCGRDFECMSDCICQYYQSCG (designed binder) [VEGF_CKP9.54.90.12] was tested, and the Cellular IC50 (human VEGF-A) was 0.0012 µM and the fold improvement relative to variant 9.54.90 (cellular IC50) (human VEGF-A) was 1.12 fold.

GCVNSVKRCKQDSDCLAGCVCSRGVNCG (designed binder) [LRP6_CKP13] showed an ELISA [2] of 3.28 and a S/N [2] of 37.8.

For GCNIMLPFWGCGRDFECFYECICQYYQSCG (designed binder) [VEGF_CKP9.54.90.62], the Cellular IC50 (human VEGF-A) was 0.00092 µM and the fold improvement relative to variant 9.54.90 (cellular IC50) (human VEGF-A) was 1.47 fold.

Work on GCNIMLPYWGCGRDFECFYECICQYYQSCG (designed binder) [VEGF_CKP9.54.90.62.F8Y] yielded a Cellular IC50 (human VEGF-A) of 0.00114 µM and a fold improvement relative to variant 9.54.90 (cellular IC50) (human VEGF-A) of 1.18 fold.

In the case of GCQDPTFNWALYCKQDSDCLAGCVCQMYQSCG (designed binder) [VEGF_CKP7], the “Cellular Assay IC50, hVEGF-A (25 ng/ml)” value (human VEGF-A) is reported as 18 µM, the “Cellular Assay IC50, rVEGF (50 ng/ml)” value (rat VEGF-A) is reported as 7 µM and the “Cellular Assay IC50, mVEGF (50 ng/ml)” value (mVEGF) is reported as 39 µM. For the same binder, the ELISA (hVEGF-A (8-109) [1]) was 3.4, the S/N (hVEGF-A (8-109) [1]) was 54.5 and the ELISA (hVEGF-A (8-109) [1]; record 2) was 0.1. It also gave a S/N (hVEGF-A (8-109) [1]; record 2) of 1.3.

For GCTTPWPPHEIMCKQDSDCLAGCVCGPNGFCG (designed binder) [VEGF_CKP12], the “Cellular Assay IC50, hVEGF-A (25 ng/ml)” value (human VEGF-A) was 102 µM, the “Cellular Assay IC50, rVEGF (50 ng/ml)” value (rat VEGF-A) was 1220 µM and the “Cellular Assay IC50, mVEGF (50 ng/ml)” value (mVEGF) was 243 µM. The ELISA (hVEGF-A (8-109) [1]) was 3.5 and the S/N (hVEGF-A (8-109) [1]) was 55.2.

GCSNRVKVRACKQDSDCLAGCVCGPNGFCG (designed binder) [LRP6_CKP19] showed an ELISA [2] of 3.27 and a S/N [2] of 42.

With GCQLMQPFWGCKQDSDCLAGCVCHWYQSCG (designed binder) [VEGF_CKP9] the “Cellular Assay IC50, hVEGF-A (25 ng/ml)” value (human VEGF-A) was 12 µM, the “Cellular Assay IC50, rVEGF (50 ng/ml)” value (rat VEGF-A) was 1 µM and the “Cellular Assay IC50, mVEGF (50 ng/ml)” value (mVEGF) was 10 µM. It also gave an ELISA (hVEGF-A (8-109) [1]) of 0.4, a S/N (hVEGF-A (8-109) [1]) of 7.4 and an ELISA (hVEGF-A (8-109) [1]; record 2) of 0.9. For the same binder, the S/N (hVEGF-A (8-109) [1]; record 2) was 11.6, the ELISA (hVEGF-A (8-109) [1]; record 3) was 3.3 and the S/N (hVEGF-A (8-109) [1]; record 3) was 36.

With GCDVMQPYWGCEMDFDCLAGCVCHWYNSCG (designed binder, also called L2.9.63.44) [VEGF_CKP9.63.44] the Kd (hVEGF-A (8-109) [3]) was 0.0012 µM.

GCNIMLPFWGCGRDFECMNQCICQYYQSCG (designed binder) [VEGF_CKP9.54.90.13] was tested, and the Cellular IC50 (human VEGF-A) was 0.00096 µM and the fold improvement relative to variant 9.54.90 (cellular IC50) (human VEGF-A) was 1.41 fold.

Work on GCRTNRVKGGCKQDSDCLAGCVCGPNGFCG (designed binder) [LRP6_CKP1] yielded an ELISA [2] of 3.23 and a S/N [2] of 45.5.

Work on GCVNRVRGCKQDSDCLAGCVCSGGRDCG (designed binder) [LRP6_CKP2] yielded an ELISA [2] of 3.41 and a S/N [2] of 41.6.

With GCNIMLPFWGCGRDFECMQTCICQYYQSCG (designed binder) [VEGF_CKP9.54.90.25] the Cellular IC50 (human VEGF-A) was 0.00126 µM and the fold improvement relative to variant 9.54.90 (cellular IC50) (human VEGF-A) was 1.07 fold.

In the case of GCNRIRNSCKQDSDCLAGCVCGRGDYCG (designed binder) [LRP6_CKP15], the ELISA [2] is reported as 2.03 and the S/N [2] is reported as 26.3.

With GCRSVNKICKQDSDCLAGCVCGSSRNCG (designed binder) [LRP6_CKP4] the ELISA [2] was 2.82 and the S/N [2] was 25.4.

Binder GCRSNKLREARGCKQDSDCLAGCVCGSRQDCG (designed binder) [LRP6_CKP12] has an ELISA [2] of 0.6 and a S/N [2] of 6.78.

GCRSNRIRCKQDSDCLAGCVCYGHGDCG (designed binder) [LRP6_CKP11] gave an ELISA [2] of 2.65 and a S/N [2] of 36.8.

Binder GCVSNRVNKGCKQDSDCLAGCVCGPNGFCG (designed binder) [LRP6_CKP7] has an ELISA [2] of 3.3 and a S/N [2] of 29.

Work on GCSRNSIKCKQDSDCLAGCVCASGSSCG (designed binder) [LRP6_CKP16] yielded an ELISA [2] of 3.36 and a S/N [2] of 31.1.
